Data on two substances can be found in publication PMC7508885.

This data set has as its system N[C@@H](Cc1ccc(O)cc1)C(=O)O. Kind of data set: ATP:PPi exchange reaction. Type of data set: biochemical, Pseudomonas aeruginosa. The settings on record: other: other substrate (Tyr or ATP) held at 2 mM; enzyme 0.4 μM; pH 7.5; 37.0 °C.

Broadly, the Km is the substrate concentration at which the rate is half of its maximum. A word on the kcat: it is the maximal rate divided by the concentration of active sites. Take “P. aeruginosa TyrRS-S (Pseudomonas aeruginosa PAO1)”: the Michaelis constant (Km) was found to be 172 µM and the kcat worked out at 3.8 s⁻¹.
On to “P. aeruginosa TyrRS-Z (Pseudomonas aeruginosa PAO1)”, for which the Michaelis-Menten constant (Km) came out at 29 µM and the catalytic constant (kcat) turned out to be 3.1 s⁻¹.
